Literature values, collected in paper PMC8654464.

Biological target: SARS-CoV-2 spike protein RBD (Severe acute respiratory syndrome coronavirus 2) (UniProt P0DTC2)

Substance: regdanvimab
- Kd: 0.065 nM
